Our source for the Kd values is paper PMC7083938, “NELL2-Robo3 complex structure reveals mechanisms of receptor activation for axon guidance” (Nature Communications, 2020).

What all share (test): flow cytometry on cells; biotinylated ligand at various concentrations, 30 min at 4 °C in PBS + 0.1% BSA, on Drosophila S2 cells displaying the partner (C-terminal FLAG, rat Neurexin-1 transmembrane helix); Cy5-streptavidin; gated on anti-FLAG positive cells; MFI fit to a single-site model; apparent KD
Holding throughout (details): one partner purified
(A flow cytometer gives signals particle by particle.)

In assay [1] the target is T1, hRobo3 FN1-3 R630A, biotinylated (human, UniProt Q96MS0 549-870, R630A, biotin on the Avi-tag (BirA)).
T1 construct: human Robo3, FN domains 1-3, P549-L870; source: High Five cells (baculovirus), purified, biotinylated with BirA (general methods)
T1 sequence (looked up): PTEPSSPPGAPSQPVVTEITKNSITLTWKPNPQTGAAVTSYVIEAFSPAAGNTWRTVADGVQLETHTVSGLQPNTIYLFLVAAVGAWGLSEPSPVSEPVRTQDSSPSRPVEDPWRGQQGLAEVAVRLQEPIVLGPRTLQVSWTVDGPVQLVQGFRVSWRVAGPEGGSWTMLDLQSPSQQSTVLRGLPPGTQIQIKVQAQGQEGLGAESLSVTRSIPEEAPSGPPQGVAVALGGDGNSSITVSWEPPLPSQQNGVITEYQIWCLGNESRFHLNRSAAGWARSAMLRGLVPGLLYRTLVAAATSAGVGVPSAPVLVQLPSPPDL

In assay [2] the target is T2, hRobo3 FN1-3 W635A, biotinylated (human, UniProt Q96MS0 549-870, W635A, biotin on the Avi-tag (BirA)).
T2 construct: human Robo3, FN domains 1-3, P549-L870; source: High Five cells (baculovirus), purified, biotinylated with BirA (general methods)
T2 sequence (looked up): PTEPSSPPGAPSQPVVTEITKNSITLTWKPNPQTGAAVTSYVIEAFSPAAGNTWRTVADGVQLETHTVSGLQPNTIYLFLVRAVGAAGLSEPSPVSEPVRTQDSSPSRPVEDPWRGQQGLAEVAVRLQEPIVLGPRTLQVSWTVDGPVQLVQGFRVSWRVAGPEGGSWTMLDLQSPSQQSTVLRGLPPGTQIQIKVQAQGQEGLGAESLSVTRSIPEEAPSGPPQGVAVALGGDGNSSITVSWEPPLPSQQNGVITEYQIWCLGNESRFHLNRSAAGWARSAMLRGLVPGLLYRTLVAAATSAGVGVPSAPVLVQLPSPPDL

Assay [3] addresses T3, hRobo3 FN1-3 F594A/W602A, biotinylated (human, UniProt Q96MS0 549-870, F594A | W602A, biotin on the Avi-tag (BirA)).
T3 construct: human Robo3, FN domains 1-3, P549-L870; source: High Five cells (baculovirus), purified, biotinylated with BirA (general methods)
T3 sequence (looked up): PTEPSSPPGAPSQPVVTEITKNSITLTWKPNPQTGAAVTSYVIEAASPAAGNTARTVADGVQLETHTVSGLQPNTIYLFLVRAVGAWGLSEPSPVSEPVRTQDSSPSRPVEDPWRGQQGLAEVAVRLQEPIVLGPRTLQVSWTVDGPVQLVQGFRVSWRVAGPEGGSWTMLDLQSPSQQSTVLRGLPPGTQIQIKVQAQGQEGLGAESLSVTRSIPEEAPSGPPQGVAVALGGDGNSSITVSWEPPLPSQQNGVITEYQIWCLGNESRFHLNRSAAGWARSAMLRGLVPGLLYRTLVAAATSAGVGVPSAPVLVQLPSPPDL

Where only a bound is given, the exact number is not on record here.

B1: hNELL2 EGF1-6 displayed on S2 cells (domain or fragment)
chain: not shown
notes: human NELL2, EGF domains 1-6, G397-T637; also called NELL2EGF1-6 WT (Actin 5C, C-terminal FLAG); FLAG-tagged NELL2 EGF1-6; source: Drosophila S2 cells, transiently transfected, on the cell surface; not shown: FLAG, C-terminal, kept; transmembrane helix of rat Neurexin-1, C-terminal, kept
As to B1, the Kd in assay [1] was not below 100 µM; in assay [2] it was 2.9 µM; in assay [3], not below 100 µM.
